Laboratory results reported in US20230374148A1, “BINDING MOLECULES THAT MULTIMERISE CD45” (UCB BIOPHARMA SRL, priority 2020, published 2023).
Marks after values point to notes of the source that are not given here.

Assays:
Format in all cases: cell-based
Human whole blood = test: Cytokine release in whole blood at 24 hrs, Luminex bead assay
Method: Human whole blood (Lithium heparin tubes) was taken from two donors (HTA #300120-1 & #300120-2) at UCB Pharma Slough, UK according to approved ethical sample collection protocol.
In a Greiner 96-well non-binding microplate, stocks of 4133-6294 BYbe and negative control BYbe (NegCtrl BYbe), with antigen-irrelevant specificity in both the Fab and scFv positions, were prepared in PBS at 5000 nM. The BYbe reagents were then serially diluted in PBS 1 in 5, three times to produce to form a 4-point dose curve. 12.5 μl of BYbe dilution was transferred into Corning Costar 96-well, cell culture treated, U-shaped-bottom microplate (cat no. 07-200-95) and 237.5 μl of whole blood added to each well. Final well concentrations of BYbes were 250 nm, 50 nM, 10 nm and 2 nM. Campath (clinical grade, diluted from 30 mg/ml stock to 1 mg/ml in PBS, lot number F1002H29) was used as a positive control at a final concentration of 10 μg/ml. Plates were sealed with a gas permeable adhesive seal and plate lids were replaced. Plates were then incubated for 24 hrs at 37° C. and 5% humidified CO2 in an undisturbed location.
Cytokine release was then assessed using a R&D Systems Luminex 13-plex human cytokine assay (custom selection of cytokines as follows; IL-1 RA, IL-4, IL-5, IL-6, IL-10, IL-11, IL-13, CCL2, IL-8, CXCL1, CX3CL1, GM-CSF and M-CSF). Following the 24-hour incubation, plates were spun at 1000 g for 10 mins and 50 μl of plasma was transferred to a separate plate containing 50 μl of assay diluent buffer (RD6-52 from the Luminex kit). Samples were resuspended thoroughly using a multichannel pipette and 50 μl transferred to the Luminex assay plate. Luminex assay standards were diluted 1 in 2, seven times to construct standard curves and added to the plate. 50 μl of microparticle mixture was then added to each well and plates incubated for 2 hrs at room temperature (RT) and mixed at 800 rpm. Plates were washed 3 times by adding 150 μl of wash buffer to each well then allowing the magnetic beads to bind to a BioTek ELx405 microplate washer magnet before supernatant was aspirated. 50 μl of biotin-antibody cocktail was added to each well at plates incubated for 1 hr at RT with shaking. Plates were then washed as before and a final addition of 50 μl of streptavidin-PE added to each well. Plates were incubated for 30 mins at RT with shaking before a final wash step and addition of 50 μl of wash buffer to each well. The Luminex assay plate was run using the iQUEplus flow cytometer (Sartorius). Standard curves were generated (using provided assay controls) and extrapolated cytokine values generated using Forecyt software (Sartorius). Data was then transferred to Graphpad Prism version 8.1 (Graphpad) to generate data visualisations.

Jurkat = test: Apoptosis of cell lines: Jurkat; conditions: 21 hrs
From the text: (§1) The following cell lines representing various leukaemia's and lymphoma's, as classified by ATCC (www.atcc.org/), were used: Jurkat—acute T-cell leukaemia; CCRF-SB—B-cell acute lymphoblastic leukaemia; MC116—B-cell undifferentiated lymphoma; Raji, Ramos—Burkitt lymphoma (rare form of B-cell non-Hodgkin lymphoma); SU-DHL-4, SU-DHL-5, SU-DHL-8, NU-DUL-1, OCI-Ly3—Diffuse large B-cell lymphoma; THP-1—acute monocytic leukaemia; and Dakiki—B cell nasopharyngeal carcinoma.
(§2) Prior to an assay being performed, 1 vial of each of the above cell lines was thawed in a 37° C. water bath and then added to 20 ml complete media (RPMI 1640+2 mM GlutaMAX+1% Pen/Strep, all previous supplied by Invitrogen, +10% Fetal Bovine Serum (FBS), Sigma Aldrich). Cells were spun (500 g, 5 min, at RT) and re-suspended in 20 ml complete media to wash and spun again. Cells were resuspended in 10 ml complete media and then counted using a ChemoMetec NucleoCounter NC-3000. 6×10^6 cells of each cell line were spun (500 g, 5 min, at RT) and re-suspended in 4.8 ml complete media. 1×10^5 cells in 80 μl were then added to each well of a Corning Costar 96-well, cell culture treated, U-shaped-bottom microplate (cat no. 07-200-95). The plate was rested in a 37° C., 5% CO2 incubator for 2 hrs
(§3) Stocks of 4133-6294 BYbe and NegCtrl BYbe at 2500 nM in complete media were prepared. In a Greiner 96-well non-binding microplate, both reagents were serially diluted in complete media 1 in 5, seven times to produce to form an 8-point dose curve. […] (final well concentrations 500-0.0064 nM) was added to the cells. Each concentration was produced in triplicate. Camptothecin (cat no. C9911-100MG, Sigma Aldrich) and Staurosporine (cat no. 56942-200UL, Sigma Aldrich) were added as positive controls of apoptosis. Both were diluted in complete media and added to the well to produce a final concentration of 5 μM. Additional positive controls included anti-thymocyte globulin (ATG, indicated by FDA for use in conditioning regimens), Rituximab (anti-CD20, indicated by FDA for Non-Hodgkin Lymphoma and Chronic Lymphocytic Leukaemia) and Campath (anti-CD52, indicated by FDA for B-cell Chronic Lymphocytic Leukaemia). Anti-thymocyte globulin, Rituximab and Campath were added to the wells to produce final concentrations of 200 μg/ml, 500 nM and 200 μg/ml, respectively. […]
(§4) Following the incubation, the plates were spun at 500 g, 5 min, RT, the buffer was aspirated with a BioTek ELx405 microplate washer, and the cells were re-suspended in FACS buffer (PBS+1% bovine serum albumin (BSA)+0.1% NaN3+2 mM EDTA, Sigma Aldrich) to wash and then re-spun and buffer was aspirated to leave the cells in 20 μl residual media. […] Cells were analysed using the Bio-Rad ZE5 Cell Analyzer. […]

MC116 = test: Apoptosis of cell lines: MC116; conditions: MC116, 21 hrs
From the text: as §1, §2, §3, §4

Raji = test: Apoptosis of cell lines: Raji; conditions: 21 hrs
From the text: as §1, §2, §3, §4

SU-DHL-4 = test: Apoptosis of cell lines: SU-DHL-4; conditions: SU-DHL-4, 21 hrs
From the text: as §1, §2, §3, §4

THP-1 = test: Apoptosis of cell lines: THP-1; conditions: THP-1, 21 hrs
From the text: as §1, §2, §3, §4

Dakiki = test: Apoptosis of cell lines: Dakiki; conditions: 21 hrs
From the text: as §1, §2, §3, §4

[1] = Campath 10 μg/ml, donor #300120-1

## Campath: anti-CD52, clinical grade, indicated by FDA for B-cell Chronic Lymphocytic Leukaemia; positive control [reference compound]
Human whole blood; Campath 10 μg/ml, above PBS-treated wells
  IL-6 level induced: marked levels
Human whole blood; [1]
  CCL2 level induced: exceeded the standard curve
  IL-1 RA level induced: exceeded the standard curve
  IL-8 level induced: exceeded the standard curve
Jurkat; 200 μg/ml
  Campath mean (%) cell reduction: 5.64%
MC116; 200 μg/ml
  Campath mean (%) cell reduction: 70.24%
Raji; 200 μg/ml
  Campath mean (%) cell reduction: 36.00%
SU-DHL-4; 200 μg/ml
  Campath mean (%) cell reduction: 92.46%
THP-1; 200 μg/ml
  Campath mean (%) cell reduction: 15.40%
Dakiki; 200 μg/ml
  Campath mean (%) cell reduction: 8.83%

B1: 4133-6294 BYbe: anti-CD45 BYbe (Fab-scFv): 4133 Fab HC-G4S linker-6294 scFv heavy chain paired with 4133 light chain (antibody)
heavy: QEQLVESGGGLVQPEGSLTLTCTASGFSFSGNYYMCWVRQAPGKGLEWIGCLYTGSSGSTYYASWAKGRFTISKTSSTTVTLQMTSLTAADTATYFCARDLGYEIDGYGGLWGQGTLVTVSSGQPKAPSVFPLAPCCGDTPSSTVTLGCLVKGYLPEPVTVTWNSGTLTNGVRTFPSVRQSSGLYSLSSVVSVTSSSQPVTCNVAHPATNTKVDKTVAPSTCSKPGGGGSGGGGSEVQLVESGAELARPGASVKMSCKASGYTFTSYTMHWVKQRPGQCLEWIGYINPSSGYTEYNQKFKDKTTLTADKSSSTAYLQLSSLTSEDSAVYYCARVGDGFYPSWLAYWGQGTLVTVSSGGGGSGGGGSGGGGSGGGGSDIQMTQSPKFLLVSAGDRVTITCKASQSVRNDVAWYQQKPGQSPKLLIFYASKRYTGVPDRFTGSGYGTDFTFTISTVQAEDLAVYFCQQDYSSPTTFGCGTKLEIK
light: AQVLTQTPSPVSAVVGGTVSISCQASQSVYNNNNLSWYQQKPGQPPKLLIYDASKLASGVPSRFKGSGSGTQFTLTISGVQCDDAATYYCLGGYYSSGWYFAFGGGTKVVVKRTPVAPTVLIFPPAADQVATGTVTIVCVANKYFPDVTVTWEVDGTTQTTGIENSKTPQNSADCTYNLSSTLTLTSTQYNSHKEYTCKVTQGTTSVVQSFNRGDC
Human whole blood; 250-2 nM, compared with PBS- and NegCtrl BYbe-treated wells
  induction of inflammatory cytokines: little or no induction
Jurkat
  Bottom (%) level of % cell reduction: 23.49%
  Top (%) level of % cell reduction: 99.27%
MC116
  Top (%) level of % cell reduction: 99.45%
MC116; calculated bottom of non-sigmoidal curve
  Bottom (%) level of % cell reduction: −65.46* %
Raji
  Bottom (%) level of % cell reduction: 13.56%
  Top (%) level of % cell reduction: 74.02%
SU-DHL-4
  Bottom (%) level of % cell reduction: 16.98%
  Top (%) level of % cell reduction: 91.88%
THP-1
  Bottom (%) level of % cell reduction: 8.14%
  Top (%) level of % cell reduction: 60.72%
Dakiki
  Bottom (%) level of % cell reduction: 10.88%
  Top (%) level of % cell reduction: 76.37%
